Test results published in PMC8844045, “Dynamic FMR1 granule phase switch instructed by m6A modification contributes to maternal RNA decay”.

B1: mixed GGACU/AGACU/GAACU probe, m6A (ssRNA)
RNA: GGGGACUAGACUGAACUGGGACUAGACUGAACUGGGACUAGACUGAACUGUAC
modifications: all A = m6A (m6ATP)
B2: mixed GGACU/AGACU/GAACU probe, unmodified (ssRNA)
RNA: B1 RNA
B3: AGACU (9x), m6A (ssRNA)
RNA: GGGAGACUAGACUAGACUGAGACUAGACUAGACUGAGACUAGACUAGACUGUAC
modifications: all A = m6A (m6ATP)

Columns and labels:
[1] = biological target: T1, FMR1 (MBP fusion) (UniProt Q9NFU0 1-684); assay: SPR; EMSA: 10 mM HEPES pH 7.4, 50 mM KCl, 1 mM DTT (printed DDT), 1 mM EDTA, 0.05% Triton X-100, 5% glycerol, 10 ng/ul salmon DNA, 25 C, then 0.2% glutaraldehyde; SPR: 20 mM HEPES pH 7.4, 150 mM KCl, 1.5 mM MgCl2, 0.1% NP40, 25 C; pull-down: 10 mM Tris-HCl pH 7.5, 150 mM KCl, 1.5 mM MgCl2, 0.1% NP-40, 0.5 mM DTT, 4 C; conditions: protein: recombinant; label: biotin-16-UTP
T1 sequence (Q9NFU0 whole entry, the tested form may be a part): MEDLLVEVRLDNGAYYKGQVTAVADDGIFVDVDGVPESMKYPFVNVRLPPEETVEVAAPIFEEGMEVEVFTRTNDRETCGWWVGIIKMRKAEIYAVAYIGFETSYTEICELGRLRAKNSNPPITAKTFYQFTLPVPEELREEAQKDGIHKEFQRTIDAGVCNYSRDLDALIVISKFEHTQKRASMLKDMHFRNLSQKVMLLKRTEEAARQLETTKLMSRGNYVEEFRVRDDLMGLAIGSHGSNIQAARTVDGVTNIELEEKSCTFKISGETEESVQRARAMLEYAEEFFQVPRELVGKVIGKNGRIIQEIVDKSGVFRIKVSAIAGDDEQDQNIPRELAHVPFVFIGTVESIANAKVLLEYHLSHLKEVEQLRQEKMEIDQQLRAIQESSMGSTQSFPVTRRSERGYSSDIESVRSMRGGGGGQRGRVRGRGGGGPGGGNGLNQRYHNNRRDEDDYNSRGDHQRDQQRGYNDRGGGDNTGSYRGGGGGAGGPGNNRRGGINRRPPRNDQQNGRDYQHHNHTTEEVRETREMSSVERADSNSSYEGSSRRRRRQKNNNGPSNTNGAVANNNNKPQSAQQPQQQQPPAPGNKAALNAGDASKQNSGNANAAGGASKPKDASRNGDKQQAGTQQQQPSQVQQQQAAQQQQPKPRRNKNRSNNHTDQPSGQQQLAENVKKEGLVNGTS

[2] = biological target: T1, FMR1 (MBP fusion); assay: EMSA; EMSA: 10 mM HEPES pH 7.4, 50 mM KCl, 1 mM DTT (printed DDT), 1 mM EDTA, 0.05% Triton X-100, 5% glycerol, 10 ng/ul salmon DNA, 25 C, then 0.2% glutaraldehyde; SPR: 20 mM HEPES pH 7.4, 150 mM KCl, 1.5 mM MgCl2, 0.1% NP40, 25 C; pull-down: 10 mM Tris-HCl pH 7.5, 150 mM KCl, 1.5 mM MgCl2, 0.1% NP-40, 0.5 mM DTT, 4 C; conditions: protein: recombinant; label: biotin-16-UTP

Row | Binder | Kd [1] | binding result [2]
1 | B1 | 80.7 nM | 
2 | B2 | 3600 nM | 
3 | B3 |  | binds
